These results are taken from US20110008766A1.

The labels stand for the following.
B1: DVD748 (bispecific antibody)
VH: EVQLQQSGPELVKPGASMKISCKASDYSFTAYTIHWMKQSHGKNLEWIGLINPYNGGTSYNQKFQGRATLTVDKSSSIAYMELLSLTSEDSAVYYCARRGYDREGHYYAMDYWGQGTSVTVSSASTKGPSVFPLAPQVQLQQSGAELMKPGASVKISCKASGYTFTSYWIEWIKQRPGHGLEWIGEILPGTGSLNNNEKFRDKATFTADTSSNTAYMQLSSLTSEDSAVYYCARGYRYDGWFAYWGQGTLVTVSA
VL: DIQMTQSPASLAASVGETVTITCRASENIYTFLAWYQQKQGKSPQLLVYTTKTLAEGVPSRFSGSGSGTQFSLKIKSLQPEDFGSYYCQHHYGLPLTFGAGTKLELKRTVAAPSVFIFPPDIQMTQSPASLSASVGETVTITCRTSENIYSYLAWYQQKPGKSPHLLVYNTKTLAEGVPSRFSGSGSGTQFSLKINSLQPEDFGSYYCQHHYDSPLTFGSGTKLELKR
B2: DVD715 (antibody)
VH: QVQLQQSGAELMKPGASVKISCKASGYTFTSYWIEWIKQRPGHGLEWIGEILPGTGSLNNNEKFRDKATFTADTSSNTAYMQLSSLTSEDSAVYYCARGYRYDGWFAYWGQGTLVTVSAASTKGPQVQLQQSGAELMKPGASVKISCKASGYTFTSYWIEWIKQRPGHGLEWIGEILPGTGSLNNNEKFRDKATFTADTSSNTAYMQLSSLTSEDSAVYYCARGYRYDGWFAYWGQGTLVTVSA
VL: DIQMTQSPASLSASVGETVTITCRTSENIYSYLAWYQQKPGKSPHLLVYNTKTLAEGVPSRFSGSGSGTQFSLKINSLQPEDFGSYYCQHHYDSPLTFGSGTKLELKRTVAAPDIQMTQSPASLSASVGETVTITCRTSENIYSYLAWYQQKPGKSPHLLVYNTKTLAEGVPSRFSGSGSGTQFSLKINSLQPEDFGSYYCQHHYDSPLTFGSGTKLELKR
B3: DVD750 (antibody)
VH: EVQLQQSGPELVQPGASMKISCKASGYSFTDYTMNWVKQSHGKNLEWIGLINPYNGGSRYNQKFMAKATLTVDKSSNTAYMELLSVTSEDSAVYYCARDAGYFGSGFYFDYWGQGTTLTVSSASTKGPSVFPLAPEVQLQQSGPELVQPGASMKISCKASGYSFTDYTMNWVKQSHGKNLEWIGLINPYNGGSRYNQKFMAKATLTVDKSSNTAYMELLSVTSEDSAVYYCARDAGYFGSGFYFDYWGQGTTLTVSS
VL: DIVMTQSHKFMSTSVGDRVSITCKASQDVSTAVAWYQQKPGQSPKLLIYSASYRSTGVPDRFTGSGSGTDFTFTISSVQAEDLAVYYCQQHYSTPTFGAGTKLELKRTVAAPSVFIFPPDIVMTQSHKFMSTSVGDRVSITCKASQDVSTAVAWYQQKPGQSPKLLIYSASYRSTGVPDRFTGSGSGTDFTFTISSVQAEDLAVYYCQQHYSTPTFGAGTKLELKR
B4: DVD716 (antibody)
VH: QVQLQQSGAELMKPGASVKISCKASGYTFTSYWIEWIKQRPGHGLEWIGEILPGTGSLNNNEKFRDKATFTADTSSNTAYMQLSSLTSEDSAVYYCARGYRYDGWFAYWGQGTLVTVSAASTKGPSVFPLAPQVQLQQSGAELMKPGASVKISCKASGYTFTSYWIEWIKQRPGHGLEWIGEILPGTGSLNNNEKFRDKATFTADTSSNTAYMQLSSLTSEDSAVYYCARGYRYDGWFAYWGQGTLVTVSA
VL: DIQMTQSPASLSASVGETVTITCRTSENIYSYLAWYQQKPGKSPHLLVYNTKTLAEGVPSRFSGSGSGTQFSLKINSLQPEDFGSYYCQHHYDSPLTFGSGTKLELKRTVAAPSVFIFPPDIQMTQSPASLSASVGETVTITCRTSENIYSYLAWYQQKPGKSPHLLVYNTKTLAEGVPSRFSGSGSGTQFSLKINSLQPEDFGSYYCQHHYDSPLTFGSGTKLELKR
B5: DVD747 (bispecific antibody)
VH: QVQLQQSGAELMKPGASVKISCKASGYTFTSYWIEWIKQRPGHGLEWIGEILPGTGSLNNNEKFRDKATFTADTSSNTAYMQLSSLTSEDSAVYYCARGYRYDGWFAYWGQGTLVTVSAASTKGPSVFPLAPASTKGPSVFPLAPEVQLQQSGPELVKPGASMKISCKASDYSFTAYTIHWMKQSHGKNLEWIGLINPYNGGTSYNQKFQGRATLTVDKSSSIAYMELLSLTSEDSAVYYCARRGYDREGHYYAMDYWGQGTSVTVSS
VL: DIQMTQSPASLSASVGETVTITCRTSENIYSYLAWYQQKPGKSPHLLVYNTKTLAEGVPSRFSGSGSGTQFSLKINSLQPEDFGSYYCQHHYDSPLTFGSGTKLELKRTVAAPSVFIFPPTVAAPSVFIFPPDIQMTQSPASLAASVGETVTITCRASENIYTFLAWYQQKQGKSPQLLVYTTKTLAEGVPSRFSGSGSGTQFSLKIKSLQPEDFGSYYCQHHYGLPLTFGAGTKLELKR
B6: DVD744 (antibody)
VH: QIQLVQSGPELKKPGETVKISCKASGYTFTDYSMHWVKQAPGKGLKWMGWIHTETGEPRYVDDFKGRFAFSLETSASTAYLQINNLKNEDTATYFCARDSYYFGSSYYFDYWGQGTTLTVSSASTKGPSVFPLAPQIQLVQSGPELKKPGETVKISCKASGYTFTDYSMHWVKQAPGKGLKWMGWIHTETGEPRYVDDFKGRFAFSLETSASTAYLQINNLKNEDTATYFCARDSYYFGSSYYFDYWGQGTTLTVSS
VL: DTVMTQSHKFMSTSVGDRVSITCKASQDVSSAVAWYQQKPGQSPKLLIYSASYRYTGVPDRFTGSGSGMDFTFTISSVQAEDLAVYYCQQHYSTPLTFGAGTKLELERTVAAPSVFIFPPDTVMTQSHKFMSTSVGDRVSITCKASQDVSSAVAWYQQKPGQSPKLLIYSASYRYTGVPDRFTGSGSGMDFTFTISSVQAEDLAVYYCQQHYSTPLTFGAGTKLELER
B7: DVD745 (antibody)
VH: QIQLVQSGPELKKPGETVKISCKASGYTFTDYSMHWVKQAPGKGLKWMGWIHTETGEPRYVDDFKGRFAFSLETSASTAYLQINNLKNEDTATYFCARDSYYFGSSYYFDYWGQGTTLTVSSASTKGPQIQLVQSGPELKKPGETVKISCKASGYTFTDYSMHWVKQAPGKGLKWMGWIHTETGEPRYVDDFKGRFAFSLETSASTAYLQINNLKNEDTATYFCARDSYYFGSSYYFDYWGQGTTLTVSS
VL: DTVMTQSHKFMSTSVGDRVSITCKASQDVSSAVAWYQQKPGQSPKLLIYSASYRYTGVPDRFTGSGSGMDFTFTISSVQAEDLAVYYCQQHYSTPLTFGAGTKLELERTVAAPDTVMTQSHKFMSTSVGDRVSITCKASQDVSSAVAWYQQKPGQSPKLLIYSASYRYTGVPDRFTGSGSGMDFTFTISSVQAEDLAVYYCQQHYSTPLTFGAGTKLELER
B8: DVD746 (bispecific antibody)
VH: QVQLQQSGAELMKPGASVKISCKASGYTFTSYWIEWIKQRPGHGLEWIGEILPGTGSLNNNEKFRDKATFTADTSSNTAYMQLSSLTSEDSAVYYCARGYRYDGWFAYWGQGTLVTVSAASTKGPSVFPLAPEVQLQQSGPELVKPGASMKISCKASDYSFTAYTIHWMKQSHGKNLEWIGLINPYNGGTSYNQKFQGRATLTVDKSSSIAYMELLSLTSEDSAVYYCARRGYDREGHYYAMDYWGQGTSVTVSS
VL: DIQMTQSPASLSASVGETVTITCRTSENIYSYLAWYQQKPGKSPHLLVYNTKTLAEGVPSRFSGSGSGTQFSLKINSLQPEDFGSYYCQHHYDSPLTFGSGTKLELKRTVAAPSVFIFPPDIQMTQSPASLAASVGETVTITCRASENIYTFLAWYQQKQGKSPQLLVYTTKTLAEGVPSRFSGSGSGTQFSLKIKSLQPEDFGSYYCQHHYGLPLTFGAGTKLELKR

The assay deals with HIV antigen. Nature of the assay: FRET quenching titration in solution; one value given for outer and inner domain.
As usually defined, the Kd is a measure of binding affinity in units of concentration. Lower therefore signals a tighter complex. B1 had an equilibrium dissociation constant (Kd) of less than 30 pM.

In turn, B2 displayed a Kd of less than 20 pM. In turn, B3 returned a Kd of less than 20 pM. To B4 belongs less than 20 pM. The result for B5 reads less than 60 pM; that for B6, 400 pM.

Consider B7, for which the Kd was 400 pM.

In turn, B8 returned a Kd of 200 pM.
